Measurements from paper PMC4145800, “A tethered delivery mechanism explains the catalytic action of a microtubule polymerase” (eLife, 2014).

Target: T1, wild-type (polymerization-competent) yeast αβ-tubulin (yeast, UniProt P09733 1-447; P02557 1-457)
T1 construct: α-tubulin of yeast; β-tubulin of yeast, wild type; source: overexpressed in Saccharomyces cerevisiae, purified; copies: 1 + 1
Test: AUC; sedimentation velocity; seven concentrations of TOG1 or TOG2 (44 nM-4.5 μM) titrated into 0.35 μM αβ-tubulin; 1:1 binding isotherm fitted; RB100 with 20 μM GTP, 20°C
Details: both partners purified

- Kd: 160 nM
- stoichiometry N: 1
B1: TOG2 domain from Stu2p, TOG2(318-560) (domain or fragment)
chain: MLPEETILDKLPKDFQERITSSKWKDRVEALEEFWDSVLSQTKKLKSTSQNYSNLLGIYGHIIQKDANIQAVALAAQSVELICDKLKTPGFSKDYVSLVFTPLLDRTKEKKPSVIEAIRKALLTICKYYDPLASSGRNEDMLKDILEHMKHKTPQIRMECTQLFNASMKEEKDGYSTLQRYLKDEVVPIVIQIVNDTQPAIRTIGFESFAILIKIFGMNTFVKTLEHLDNLKRKKIEETVKTL
